The chains are these.
T1: Ac-DAEFRHDSGYEVHHQKGGGGC-NH2, immobilized peptide fragment corresponding to the 1-16 region of the amyloid-β … (N-terminal acetyl (Ac); C-terminal amide (NH2); C-terminal cysteine bound to the CM5 chip through a thiol bond)
T1 construct: Synthetic 21-mer; Aβ 1-16 plus GGGG linker and Cys for immobilisation; also called ligand; target ligand
T1 peptide: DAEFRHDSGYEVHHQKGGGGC

Sequence of complete β peptide 1-40, marked by a fluorescent marker (P05067 672-711 limits assumed): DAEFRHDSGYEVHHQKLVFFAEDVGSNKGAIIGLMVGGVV

One experiment has as its target T1, Ac-DAEFRHDSGYEVHHQKGGGGC-NH2, …. Description: SPR, BIACORE 3000, ligand immobilised on CM5 chip by thiol bond, peptide as analyte 0-25 µM, response at equilibrium; Example 1, BIACORE 3000, response at equilibrium. The method, then:
The SPR spectroscopy experiments were conducted with the BIACORE 3000 apparatus. The reagents for immobilizing the amyloid-β peptide fragment (EDC, NHS, PDEA and cysteine) were bought from GE Healthcare (USA). The buffer used for immobilizing the peptide ligand by formation of thiol bonds was 10 mM sodium acetate at pH 4.5. The regeneration buffer was an HBS buffer containing a medium with 10 mM HEPES and 3 mM EDTA, 0.005% of surfactant P20 and 150 mM NaCl at pH 7.4. […] was a HBS buffer at pH 7.4 and a HEPES buffer at pH 6.8, 50 mM, with 100 μM of Zn(II) ions for the reactive tetrapeptide Ac-HAEE-NH₂. All the buffers were filtered before use.
The peptide fragment of the ligand was: Ac-[…]-NH₂, corresponding to the sequence SEQ. ID. NO.26. This peptide with 21 amino acids contains the 16 amino acids of the N-terminal end of the binding domain of the amyloid-β, i.e. […] (SEQ. ID. NO.25), followed by 4 glycine amino acids and a cysteine C-Terminal end. […]
The reagent Ac-HAEE-NH₂ was prepared by dilution with 7 concentrations, i.e. 0, 2, 5, 10, 15, 20 and 25 μM, and injected in a multichannel mode (20 μL QUICKINJECT, 5 μL/min). […] Next, the dissociation constant Kd was calculated in a known way from curves established for the response at equilibrium (Req) versus the concentration (M) in the BIA evaluation 4.1 program.
On to Ac-HAEE-NH2 (also called ID; NO; 19) [Ac-HAEE-NH2], for which binding was put at a Kd of 0.022 µM.

A further experiment concerns the target complete β peptide 1-40, marked by a fluorescent marker (UniProt P05067 672-711, fluorescent marker, kind and position not stated). Put plainly: cell-based or functional assay.
For the molecule Ac-HAEE-NH2 (also called ID; NO; 19) [Ac-HAEE-NH2], the “inhibition of the aggregation of the Aβ peptide (fluorescence of marked Aβ 1-40 bound to the wells, SYNTHALOID SCREENING PLATE kit), IC50” value came to 20 µM. On to Ac-RADD-NH2 (also called ID; NO) [Ac-RADD-NH2], for which the “inhibition of the aggregation of the Aβ peptide (fluorescence of marked Aβ 1-40 bound to the wells, SYNTHALOID SCREENING PLATE kit), IC50” value was 20 µM.

The target of another experiment is T1, Ac-DAEFRHDSGYEVHHQKGGGGC-NH2, …. Put plainly: SPR, BIACORE T100, ligand immobilised on CM5 chip, peptide as analyte 50-2,000 µM, no zinc, kinetic fit.
In the case of Ac-RAEE-NH2 (also called ID; NO; 23) [Ac-RAEE-NH2], the affinity, expressed as Kd, was 7700 µM and the koff was 0.0112 s⁻¹. In turn, Ac-HAEE-NH2 (also called ID; NO; 19) [Ac-HAEE-NH2] showed a dissociation constant (Kd) of 90 µM and a koff of 3.5e-05 s⁻¹. On the same counts, the results for Ac-KAED-NH2 (also called ID; NO) [Ac-KAED-NH2] are 3300 µM and 0.019 s⁻¹. For the molecule Ac-KADE-NH2 (also called ID; NO; 15) [Ac-KADE-NH2], binding was characterised by a dissociation constant (Kd) of 4500 µM and the koff amounted to 0.0096 s⁻¹.

As for Ac-HADD-NH2 (also called ID; NO) [Ac-HADD-NH2], binding was characterised by a dissociation constant (Kd) of 3250 µM and the koff turned out to be 0.0104 s⁻¹. On the same counts, the results for Ac-RADD-NH2 (also called ID; NO) [Ac-RADD-NH2] are 13 µM and 0.00024 s⁻¹. On the same counts, the results for Ac-DDAK-NH2 (also called ID; NO) [Ac-DDAK-NH2] are 1370 µM and 0.0062 s⁻¹.

As to Ac-DEAR-NH2 (also called ID; NO; 12) [Ac-DEAR-NH2], binding was characterised by a dissociation constant (Kd) of 1980 µM and the koff turned out to be 0.00709 s⁻¹.

Another experiment shares this target. Description: SPR, BIACORE 3000, procedure of Example 1.
Consider Ac-RQISHAEEQE-NH2 (also called ID; NO; 53) [Ac-RQISHAEEQE-NH2], for which the binding result is “no binding (tested: Kd from 10^-3 to 10^-4 M)”. The same measure, in the same setting: the value for Ac-DERQISHAEE-NH2 (also called ID; NO; 58) [Ac-DERQISHAEE-NH2] was “no binding (tested: Kd from 10^-3 to 10^-4 M)”; that for Ac-KNIAHAEEAD-NH2 (also called ID; NO; 50) [Ac-KNIAHAEEAD-NH2] was “no binding (tested: Kd from 10^-3 to 10^-4 M)”. For the molecule Ac-KQLGHAEEGE-NH2 (also called ID; NO; 52) [Ac-KQLGHAEEGE-NH2], the binding result is “no binding (tested: Kd from 10^-3 to 10^-4 M)”. On the same count and under the same terms, next, Ac-EERNFSHAEE-NH2 (also called ID; NO; 56) [Ac-EERNFSHAEE-NH2]: “no binding (tested: Kd from 10^-3 to 10^-4 M)”. With Ac-LAHAEE-NH2 (also called ID; NO; 44) [Ac-LAHAEE-NH2], the binding result is listed as “no binding (tested: Kd from 10^-3 to 10^-4 M)”. Take Ac-ISHAEE-NH2 (also called ID; NO; 48) [Ac-ISHAEE-NH2]: the binding result is “no binding (tested: Kd from 10^-3 to 10^-4 M)”. On the same count and under the same terms, next, Ac-LGHAEE-NH2 (also called ID; NO; 47) [Ac-LGHAEE-NH2]: “no binding (tested: Kd from 10^-3 to 10^-4 M)”; Ac-FSHAEE-NH2 (also called ID; NO; 46) [Ac-FSHAEE-NH2]: “no binding (tested: Kd from 10^-3 to 10^-4 M)”; Ac-IAHAEE-NH2 (also called ID; NO; 45) [Ac-IAHAEE-NH2]: “no binding (tested: Kd from 10^-3 to 10^-4 M)”. Turning to Ac-HAEESE-NH2 (also called ID; NO; 41) [Ac-HAEESE-NH2], the binding result is reported as “no binding (tested: Kd from 10^-3 to 10^-4 M)”. Same read-out and setting: the value for Ac-HAEEQE-NH2 (also called ID; NO; 43) [Ac-HAEEQE-NH2] was “no binding (tested: Kd from 10^-3 to 10^-4 M)”; that for Ac-HAEEAD-NH2 (also called ID; NO; 40) [Ac-HAEEAD-NH2] was “no binding (tested: Kd from 10^-3 to 10^-4 M)”. Ac-HAEESD-NH2 (also called ID; NO; 39) [Ac-HAEESD-NH2]: the binding result is “no binding (tested: Kd from 10^-3 to 10^-4 M)”. Turning to Ac-HAEEGE-NH2 (also called ID; NO; 42) [Ac-HAEEGE-NH2], the binding result was “no binding (tested: Kd from 10^-3 to 10^-4 M)”. In the case of Ac-AADD-NH2 (also called ID; NO; 32) [Ac-AADD-NH2], the binding result is reported as “no binding (tested: Kd from 10^-3 to 10^-4 M)”.

Ac-HADA-NH2 (also called ID; NO; 34) [Ac-HADA-NH2]: the binding result is listed as “no binding (tested: Kd from 10^-3 to 10^-4 M)”. On the same count and under the same terms, next, Ac-RADA-NH2 (also called ID; NO; 36) [Ac-RADA-NH2]: “no binding (tested: Kd from 10^-3 to 10^-4 M)”; Ac-HAAD-NH2 (also called ID; NO; 33) [Ac-HAAD-NH2]: “no binding (tested: Kd from 10^-3 to 10^-4 M)”. As to Ac-HAEA-NH2 (also called ID; NO; 30) [Ac-HAEA-NH2], the binding result is reported as “no binding (tested: Kd from 10^-3 to 10^-4 M)”.

Turning to Ac-AAEE-NH2 (also called ID; NO; 29) [Ac-AAEE-NH2], the binding result is reported as “no binding (tested: Kd from 10^-3 to 10^-4 M)”. On to Ac-AADE-NH2 (also called ID; NO; 35) [Ac-AADE-NH2], for which the binding result was “no binding (tested: Kd from 10^-3 to 10^-4 M)”. On to Ac-KAAE-NH2 (also called ID; NO; 38) [Ac-KAAE-NH2], for which the binding result is “no binding (tested: Kd from 10^-3 to 10^-4 M)”. With Ac-RAAE-NH2 (also called ID; NO; 37) [Ac-RAAE-NH2], the binding result is listed as “no binding (tested: Kd from 10^-3 to 10^-4 M)”.

On to Ac-HAAE-NH2 (also called ID; NO; 31) [Ac-HAAE-NH2], for which the binding result was “no binding (tested: Kd from 10^-3 to 10^-4 M)”. On the same count and under the same terms, next, Ac-DEKQLGHAEE-NH2 (also called ID; NO; 57) [Ac-DEKQLGHAEE-NH2]: “no binding (tested: Kd from 10^-3 to 10^-4 M)”. Turning to Ac-RNFSHAEESE-NH2 (also called ID; NO; 51) [Ac-RNFSHAEESE-NH2], the binding result was “no binding (tested: Kd from 10^-3 to 10^-4 M)”.

For the molecule Ac-EEKNIAHAEE-NH2 (also called ID; NO; 55) [Ac-EEKNIAHAEE-NH2], the binding result was “no binding (tested: Kd from 10^-3 to 10^-4 M)”. As to Ac-DDHSLAHAEE-NH2 (also called ID; NO; 54) [Ac-DDHSLAHAEE-NH2], the binding result is listed as “no binding (tested: Kd from 10^-3 to 10^-4 M)”.

Turning to Ac-HSLAHAEESD-NH2 (also called ID; NO; 49) [Ac-HSLAHAEESD-NH2], the binding result is listed as “no binding (tested: Kd from 10^-3 to 10^-4 M)”.

(Values after patent US20130252901A1 (KIMONELLA VENTURES, published 2013).)
